# IntAct's records for PubMed 29549094
# B1: Syntaxin-17 (Homo sapiens), P56962 (parent)
# chain: MSEDEEKVKLRRLEPAIQKFIKIVIPTDLERLRKHQINIEKYQRCRIWDKLHEEHINAGRTVQQLRSNIREIEKLCLKVRKDDLVLLKRMIDPVKEEASAATAEFLQLHLESVEELKKQFNDEETLLQPPLTRSMTVGGAFHTTEAEASSQSLTQIYALPEIPQDQNAAESWETLEADLIELSQLVTDFSLLVNSQQEKIDSIADHVNSAAVNVEEGTKNLGKAAKYKLAALPVAGALIGGMVGGPIGLLAGFKVAGIAAALGGGVLGFTGGKLIQRKKQKMMEKLTSSCPDLPSQTDKKCS
# partner: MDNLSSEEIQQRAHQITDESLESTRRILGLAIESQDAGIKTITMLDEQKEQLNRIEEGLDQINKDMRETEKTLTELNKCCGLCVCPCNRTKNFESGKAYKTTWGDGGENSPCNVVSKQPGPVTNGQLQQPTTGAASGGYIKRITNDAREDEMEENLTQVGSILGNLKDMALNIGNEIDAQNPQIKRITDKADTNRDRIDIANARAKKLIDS
# B2: Syntaxin-17 (Homo sapiens), P56962 (parent)
# chain: B1 chain
# Variants of: B1
# Conditions: with snp23_human SNAP23, O00161
row,Variant,effect of a mutation on the interaction
1,MSEDEEKVKLRRLEPAIQKFIKIVIPTDLERLRKHQINIEKYQRCRIWDKLHEEHINAGRTVQQLRSNIREIEKLCLKVRKDDLVLLKRMIDPVKEEASAATAEFLQLHLESVEELKKQFNDEETLLQPPLTRSMTVGGAFHTTEAEASSQSLTQIYALPEIPQDQNAAESWETLEADLIELSQLVTDFSLLVNSQQEKIDSIADHVNSAAVNVEEGTKNLGKAAKYKLAALPVAGALIGGMVGGPIGLLAGFCVAGIAAALGGGVLGFTGGKLIQRKKQKMMEKLTSSCPDLPSQTDKKCS [K254C],decreasing interaction strength

# Variants of: B2
# Conditions: with acsl3_human ACSL3, O95573
# Chain of acsl3_human ACSL3, O95573 (O95573 whole entry): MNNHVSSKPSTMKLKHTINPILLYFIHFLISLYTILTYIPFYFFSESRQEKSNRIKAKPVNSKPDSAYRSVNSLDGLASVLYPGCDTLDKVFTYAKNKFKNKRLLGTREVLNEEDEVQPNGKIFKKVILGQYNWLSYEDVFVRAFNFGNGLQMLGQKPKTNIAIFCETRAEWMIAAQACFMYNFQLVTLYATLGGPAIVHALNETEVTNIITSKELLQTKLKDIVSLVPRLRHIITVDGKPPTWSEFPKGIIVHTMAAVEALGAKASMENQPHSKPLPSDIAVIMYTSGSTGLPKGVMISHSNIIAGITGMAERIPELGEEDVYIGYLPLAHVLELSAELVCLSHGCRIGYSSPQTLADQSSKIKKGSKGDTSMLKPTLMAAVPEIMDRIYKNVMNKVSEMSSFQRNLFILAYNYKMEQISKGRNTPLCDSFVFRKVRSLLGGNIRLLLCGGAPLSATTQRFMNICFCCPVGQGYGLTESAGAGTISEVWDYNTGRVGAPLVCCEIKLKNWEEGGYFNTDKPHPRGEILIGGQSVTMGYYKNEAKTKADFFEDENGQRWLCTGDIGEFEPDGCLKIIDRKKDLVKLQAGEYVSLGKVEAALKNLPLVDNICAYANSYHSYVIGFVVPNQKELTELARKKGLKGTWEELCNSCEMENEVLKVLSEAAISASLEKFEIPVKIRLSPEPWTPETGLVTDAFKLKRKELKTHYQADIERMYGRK
row,Variant,effect of a mutation on the interaction
1,MSEDEEKVKLRRLEPAIQKFIKIVIPTDLERLRKHQINIEKYQRCRIWDKLHEEHINAGRTVQQLRSNIREIEKLCLKVRKDDLVLLKRMIDPVKEEASAATAEFLQLHLESVEELKKQFNDEETLLQPPLTRSMTVGGAFHTTEAEASSQSLTQIYALPEIPQDQNAAESWETLEADLIELSQLVTDFSLLVNSQQEKIDSIADHVNSAAVNVEEGTKNLGKAAKYKLAALPVAGALIGGMVGGPIGLLAGFCVAGIAAALGGGVLGFTGGKLIQRKKQKMMEKLTSSCPDLPSQTDKKCS [K254C],with no effect
